Test results taken from the supplement of paper PMC9732359.
± gives the uncertainty stated by the source.

Assay: protein stability index of a GFP-peptide fusion (yeast GPS) (PSI 1-4); higher = more stable; sorted into four equal gates, so the index is relative within each strain
Summary of the method: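 The protein stability index combines read frequencies across sorting gates, each weighted by its gate number and then summed. To obtain those frequencies, a pooled yeast library of GFP fusions to tiled 17-residue yeast protein peptides, on a plasmid also expressing Cherry, was grown to mid-log phase in leucine-free medium. The cells were sorted into four equal gates by GFP/Cherry ratio before plasmid amplification by PCR and Illumina sequencing.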

## KDTPFTIYDGEAVAKYI [PRE5]
doa10∆
  protein stability index: 2.69 ± 0.073
pdr5∆
  protein stability index: 2.97 ± 0.062
san1∆
  protein stability index: 3.13 ± 0.089
ubr1∆
  protein stability index: 3.12 ± 0.05

## NELQEERLKVPILVTLV [POP6]
doa10∆
  protein stability index: 1.67 ± 0.034
pdr5∆
  protein stability index: 1.99 ± 0.036
san1∆
  protein stability index: 1.84 ± 0.053
ubr1∆
  protein stability index: 1.7 ± 0.023

## AEDGSRSTKDMIDAVFE [SNF6]
doa10∆
  protein stability index: 3.18 ± 0.06
pdr5∆
  protein stability index: 3.38 ± 0.048
san1∆
  protein stability index: 3.31 ± 0.042
ubr1∆
  protein stability index: 3.14 ± 0.046

## QQQQTSPPPQTHQSPPP [SNF5]
doa10∆
  protein stability index: 2.883 ± 0.018
pdr5∆
  protein stability index: 2.878 ± 0.016
san1∆
  protein stability index: 2.88 ± 0.016
ubr1∆
  protein stability index: 2.901 ± 0.014

## QWTGGRGGGHHSFEDAH [FAS1]
doa10∆
  protein stability index: 3.21 ± 0.24
pdr5∆
  protein stability index: 3.47 ± 0.2

## NWRGREHWKVRNFKKAN [BRN1]
doa10∆
  protein stability index: 3.43 ± 0.12
pdr5∆
  protein stability index: 3.36 ± 0.12
san1∆
  protein stability index: 3.52 ± 0.075
ubr1∆
  protein stability index: 3.49 ± 0.1

## ASKKSGGDVVKFQKLLQ [SMC4]
doa10∆
  protein stability index: 3.42 ± 0.15
pdr5∆
  protein stability index: 3.64 ± 0.12
san1∆
  protein stability index: 3.19 ± 0.13
ubr1∆
  protein stability index: 3.4 ± 0.17

## VLTYPEKVTRYNRHKLQ [RPO31]
doa10∆
  protein stability index: 2.1 ± 0.055
pdr5∆
  protein stability index: 1.6 ± 0.048
san1∆
  protein stability index: 2.32 ± 0.052
ubr1∆
  protein stability index: 1.43 ± 0.05

## TNQIFQSRRYNLRRHSD [SIN4]
doa10∆
  protein stability index: 2.94 ± 0.045
pdr5∆
  protein stability index: 3.18 ± 0.04
san1∆
  protein stability index: 3.04 ± 0.045
ubr1∆
  protein stability index: 3.08 ± 0.031

## TSELGNDDFSEVFEFKT [BRR2]
doa10∆
  protein stability index: 3.04 ± 0.14
pdr5∆
  protein stability index: 3.08 ± 0.097
san1∆
  protein stability index: 2.41 ± 0.083
ubr1∆
  protein stability index: 2.7 ± 0.099

## DTRFGGRMDMTRLYDYE [SSN2]
doa10∆
  protein stability index: 3.14 ± 0.1
pdr5∆
  protein stability index: 3.23 ± 0.081
san1∆
  protein stability index: 3.47 ± 0.045
ubr1∆
  protein stability index: 3.21 ± 0.061

## PAPINSLSRDFVMKTRR [SNU114]
doa10∆
  protein stability index: 3.15 ± 0.081
pdr5∆
  protein stability index: 2.95 ± 0.064
san1∆
  protein stability index: 2.97 ± 0.049
ubr1∆
  protein stability index: 3.15 ± 0.051

## GSNYNPYFPGGSIAMAR [CYT1]
doa10∆
  protein stability index: 2.08 ± 0.082
pdr5∆
  protein stability index: 2.4 ± 0.13
san1∆
  protein stability index: 2.59 ± 0.093
ubr1∆
  protein stability index: 2.35 ± 0.048

## IQSQVFESLYNSNDSVF [BRR2]
doa10∆
  protein stability index: 2.04 ± 0.053
pdr5∆
  protein stability index: 2.31 ± 0.057
san1∆
  protein stability index: 1.59 ± 0.097
ubr1∆
  protein stability index: 2.09 ± 0.046

## KINSWDQVLVKGGEQIS [YJL041W/NSP1]
doa10∆
  protein stability index: 2.04 ± 0.087
pdr5∆
  protein stability index: 2.56 ± 0.085
san1∆
  protein stability index: 3.29 ± 0.087
ubr1∆
  protein stability index: 2.21 ± 0.073

## FALIDYFYDLDVLKDGE [BRN1]
doa10∆
  protein stability index: 2.86 ± 0.049
pdr5∆
  protein stability index: 2.76 ± 0.057
san1∆
  protein stability index: 3.04 ± 0.061
ubr1∆
  protein stability index: 2.79 ± 0.049

## YLMTYPQQPMVKTKTIE [RET1]
doa10∆
  protein stability index: 1.81 ± 0.099
pdr5∆
  protein stability index: 1.69 ± 0.15
san1∆
  protein stability index: 1.61 ± 0.24
ubr1∆
  protein stability index: 1.08 ± 0.065

## KALKTNINFASGVKNDI [CDC53]
doa10∆
  protein stability index: 3.09 ± 0.089
pdr5∆
  protein stability index: 3.22 ± 0.068
san1∆
  protein stability index: 2.83 ± 0.095
ubr1∆
  protein stability index: 3.04 ± 0.074

## TSTNGDSENNEENSSSN [RGR1]
doa10∆
  protein stability index: 2.64 ± 0.18
pdr5∆
  protein stability index: 3.18 ± 0.11
san1∆
  protein stability index: 3.36 ± 0.11
ubr1∆
  protein stability index: 2.95 ± 0.086

## QDSIFQRIIADLSADKP [SRB8]
doa10∆
  protein stability index: 2.63 ± 0.046
pdr5∆
  protein stability index: 2.56 ± 0.057
san1∆
  protein stability index: 2.59 ± 0.048
ubr1∆
  protein stability index: 2.52 ± 0.032

## NILALNLVSLLIIVTRK [YML031W/NDC1]
doa10∆
  protein stability index: 1.92 ± 0.072
pdr5∆
  protein stability index: 1.35 ± 0.044
san1∆
  protein stability index: 1.2 ± 0.11
ubr1∆
  protein stability index: 1.32 ± 0.039

## KTVCAIALILAIQMVDP [SMC3]
doa10∆
  protein stability index: 1.11 ± 0.092
pdr5∆
  protein stability index: 1.1 ± 0.072
san1∆
  protein stability index: 2.08 ± 0.23
ubr1∆
  protein stability index: 1.87 ± 0.081

## YSLRLINKEIFHHWLVE [SRB8]
doa10∆
  protein stability index: 1.75 ± 0.064
pdr5∆
  protein stability index: 1.52 ± 0.081
san1∆
  protein stability index: 1.55 ± 0.13
ubr1∆
  protein stability index: 1.59 ± 0.068

## FQYGSRLPTFLKHKSIC [RPP1]
doa10∆
  protein stability index: 2.24 ± 0.081
pdr5∆
  protein stability index: 1.91 ± 0.055
san1∆
  protein stability index: 1.68 ± 0.084
ubr1∆
  protein stability index: 1.87 ± 0.063

## IRVLFKENGQLIGAATK [SEC65]
doa10∆
  protein stability index: 1.97 ± 0.068
pdr5∆
  protein stability index: 2.12 ± 0.11
san1∆
  protein stability index: 2.17 ± 0.12
ubr1∆
  protein stability index: 2.38 ± 0.079

## DPSGSYFPWKATAIGKG [PRE8]
doa10∆
  protein stability index: 2.93 ± 0.1
pdr5∆
  protein stability index: 2.68 ± 0.11
san1∆
  protein stability index: 2.82 ± 0.077
ubr1∆
  protein stability index: 3.13 ± 0.075

## PRVQGFYVPQARNVTFD [GRR1]
doa10∆
  protein stability index: 2.99 ± 0.064
pdr5∆
  protein stability index: 2.68 ± 0.056
san1∆
  protein stability index: 2.91 ± 0.038
ubr1∆
  protein stability index: 3.02 ± 0.045

## TPMDESSYDLLFNESFI [SRP72]
doa10∆
  protein stability index: 3.07 ± 0.1
pdr5∆
  protein stability index: 2.98 ± 0.1
san1∆
  protein stability index: 2.7 ± 0.1
ubr1∆
  protein stability index: 3.12 ± 0.052

## TPSTEESRAQNVFGQDN [SWI3]
doa10∆
  protein stability index: 2.58 ± 0.092
pdr5∆
  protein stability index: 2.77 ± 0.093
san1∆
  protein stability index: 3.35 ± 0.054
ubr1∆
  protein stability index: 2.55 ± 0.048

## VLLHGASLGIGLAAMGS [RPN2]
doa10∆
  protein stability index: 1.82 ± 0.071
pdr5∆
  protein stability index: 1.9 ± 0.069
san1∆
  protein stability index: 1.93 ± 0.072
ubr1∆
  protein stability index: 1.56 ± 0.065

## TYNMIDAAAEKRNGDEV [ARP7]
doa10∆
  protein stability index: 2.85 ± 0.066
pdr5∆
  protein stability index: 3.03 ± 0.07
san1∆
  protein stability index: 3.13 ± 0.055
ubr1∆
  protein stability index: 3.18 ± 0.044

## YQCAMGKQAIGAIAYNQ [RET1]
doa10∆
  protein stability index: 2.55 ± 0.053
pdr5∆
  protein stability index: 2.76 ± 0.06
san1∆
  protein stability index: 2.78 ± 0.047
ubr1∆
  protein stability index: 2.65 ± 0.049

## NLYDDVKCWSKFIEKFQ [MED1]
pdr5∆
  protein stability index: 3.07 ± 0.11
san1∆
  protein stability index: 3.27 ± 0.14
ubr1∆
  protein stability index: 3.58 ± 0.29

## NLSSNVNFTEIGGLIPQ [YCS4]
doa10∆
  protein stability index: 2.77 ± 0.071
pdr5∆
  protein stability index: 2.46 ± 0.073
san1∆
  protein stability index: 2.49 ± 0.08
ubr1∆
  protein stability index: 2.47 ± 0.059

## FEVEMILMQQQMMARMA [SRP54]
doa10∆
  protein stability index: 1.17 ± 0.12
pdr5∆
  protein stability index: 1.19 ± 0.076
san1∆
  protein stability index: 2.34 ± 0.15
ubr1∆
  protein stability index: 1.73 ± 0.27

## NVMLEKIKDNKEKIKNN [RPT5]
doa10∆
  protein stability index: 2.78 ± 0.12
pdr5∆
  protein stability index: 2.94 ± 0.087
san1∆
  protein stability index: 2.55 ± 0.099
ubr1∆
  protein stability index: 2.72 ± 0.094

## GWDSLASRNVWSFYNGN [SNU114]
doa10∆
  protein stability index: 2.99 ± 0.12
pdr5∆
  protein stability index: 3.12 ± 0.077
san1∆
  protein stability index: 3.48 ± 0.05
ubr1∆
  protein stability index: 3.22 ± 0.066

## DLNKENKLLRRKLMEME [YIL149C/MLP2]
doa10∆
  protein stability index: 3.41 ± 0.2
pdr5∆
  protein stability index: 2.95 ± 0.21
san1∆
  protein stability index: 3.33 ± 0.11

## DKSTTQLRKEIQLLDEN [MED11]
doa10∆
  protein stability index: 1.56 ± 0.093
pdr5∆
  protein stability index: 1.54 ± 0.086
san1∆
  protein stability index: 1.71 ± 0.17
ubr1∆
  protein stability index: 1.55 ± 0.068

## RQKNVIHRAARPTRPDK [RPL15A]
doa10∆
  protein stability index: 3.31 ± 0.17
pdr5∆
  protein stability index: 3.69 ± 0.16
san1∆
  protein stability index: 3.27 ± 0.066
ubr1∆
  protein stability index: 3.24 ± 0.2

## RFAFSVIWELDDSANIV [DIS3]
doa10∆
  protein stability index: 2.63 ± 0.06
pdr5∆
  protein stability index: 2.49 ± 0.067
san1∆
  protein stability index: 3.01 ± 0.063
ubr1∆
  protein stability index: 2.62 ± 0.047

## SVGTDPMPIITFLSEWG [RPB2]
doa10∆
  protein stability index: 2.7 ± 0.1
pdr5∆
  protein stability index: 1.99 ± 0.057
san1∆
  protein stability index: 1.57 ± 0.094
ubr1∆
  protein stability index: 2.22 ± 0.062

## TASFIPLDTIETELPTL [SMC1]
doa10∆
  protein stability index: 2.58 ± 0.066
pdr5∆
  protein stability index: 2.65 ± 0.078
san1∆
  protein stability index: 2.56 ± 0.066
ubr1∆
  protein stability index: 2.53 ± 0.051

## KQRLDLARQVKLLLLNT [YIL149C/MLP2]
doa10∆
  protein stability index: 2.56 ± 0.059
pdr5∆
  protein stability index: 2.15 ± 0.058
san1∆
  protein stability index: 1.98 ± 0.092
ubr1∆
  protein stability index: 1.88 ± 0.034

## IGTANYKPLIEERMGQI [SMC4]
doa10∆
  protein stability index: 3.1 ± 0.087
pdr5∆
  protein stability index: 3.53 ± 0.087
san1∆
  protein stability index: 3.37 ± 0.059
ubr1∆
  protein stability index: 3.27 ± 0.063

## LGLAKSVHHARVLITQR [RPS9A]
doa10∆
  protein stability index: 2.34 ± 0.12
pdr5∆
  protein stability index: 2.86 ± 0.15
san1∆
  protein stability index: 2.61 ± 0.17

## SRYILFEIIFPPTDTNV [POP5]
doa10∆
  protein stability index: 1.54 ± 0.069
pdr5∆
  protein stability index: 1.41 ± 0.052
san1∆
  protein stability index: 1.53 ± 0.086
ubr1∆
  protein stability index: 1.77 ± 0.047

## SVLISIPLDNYDDFIYL [PCI8]
doa10∆
  protein stability index: 1.25 ± 0.048
pdr5∆
  protein stability index: 1.75 ± 0.055
san1∆
  protein stability index: 1.28 ± 0.11
ubr1∆
  protein stability index: 1.52 ± 0.042

## DQHVINILWAIYNSASK [YCS4]
doa10∆
  protein stability index: 1.69 ± 0.044
pdr5∆
  protein stability index: 2.22 ± 0.048
san1∆
  protein stability index: 1.63 ± 0.077
ubr1∆
  protein stability index: 1.59 ± 0.041

## SSVYRLKFAVQVDKVTK [RPL26A]
doa10∆
  protein stability index: 1.67 ± 0.16
san1∆
  protein stability index: 2.71 ± 0.24
ubr1∆
  protein stability index: 2.78 ± 0.27

## YGEAPTSPGFGVSSPGF [RPO21]
doa10∆
  protein stability index: 3.06 ± 0.14
pdr5∆
  protein stability index: 3.45 ± 0.14
san1∆
  protein stability index: 2.93 ± 0.17
ubr1∆
  protein stability index: 3.17 ± 0.054
